The values below come from IntAct's records for PubMed 29187380.

In one assay the target is vac14_human VAC14 (UniProt Q08AM6).
For the next assay, the target named is dock7_human DOCK7 (UniProt Q96N67).
Chain of UniProt Q96N67 (Q96N67 whole entry): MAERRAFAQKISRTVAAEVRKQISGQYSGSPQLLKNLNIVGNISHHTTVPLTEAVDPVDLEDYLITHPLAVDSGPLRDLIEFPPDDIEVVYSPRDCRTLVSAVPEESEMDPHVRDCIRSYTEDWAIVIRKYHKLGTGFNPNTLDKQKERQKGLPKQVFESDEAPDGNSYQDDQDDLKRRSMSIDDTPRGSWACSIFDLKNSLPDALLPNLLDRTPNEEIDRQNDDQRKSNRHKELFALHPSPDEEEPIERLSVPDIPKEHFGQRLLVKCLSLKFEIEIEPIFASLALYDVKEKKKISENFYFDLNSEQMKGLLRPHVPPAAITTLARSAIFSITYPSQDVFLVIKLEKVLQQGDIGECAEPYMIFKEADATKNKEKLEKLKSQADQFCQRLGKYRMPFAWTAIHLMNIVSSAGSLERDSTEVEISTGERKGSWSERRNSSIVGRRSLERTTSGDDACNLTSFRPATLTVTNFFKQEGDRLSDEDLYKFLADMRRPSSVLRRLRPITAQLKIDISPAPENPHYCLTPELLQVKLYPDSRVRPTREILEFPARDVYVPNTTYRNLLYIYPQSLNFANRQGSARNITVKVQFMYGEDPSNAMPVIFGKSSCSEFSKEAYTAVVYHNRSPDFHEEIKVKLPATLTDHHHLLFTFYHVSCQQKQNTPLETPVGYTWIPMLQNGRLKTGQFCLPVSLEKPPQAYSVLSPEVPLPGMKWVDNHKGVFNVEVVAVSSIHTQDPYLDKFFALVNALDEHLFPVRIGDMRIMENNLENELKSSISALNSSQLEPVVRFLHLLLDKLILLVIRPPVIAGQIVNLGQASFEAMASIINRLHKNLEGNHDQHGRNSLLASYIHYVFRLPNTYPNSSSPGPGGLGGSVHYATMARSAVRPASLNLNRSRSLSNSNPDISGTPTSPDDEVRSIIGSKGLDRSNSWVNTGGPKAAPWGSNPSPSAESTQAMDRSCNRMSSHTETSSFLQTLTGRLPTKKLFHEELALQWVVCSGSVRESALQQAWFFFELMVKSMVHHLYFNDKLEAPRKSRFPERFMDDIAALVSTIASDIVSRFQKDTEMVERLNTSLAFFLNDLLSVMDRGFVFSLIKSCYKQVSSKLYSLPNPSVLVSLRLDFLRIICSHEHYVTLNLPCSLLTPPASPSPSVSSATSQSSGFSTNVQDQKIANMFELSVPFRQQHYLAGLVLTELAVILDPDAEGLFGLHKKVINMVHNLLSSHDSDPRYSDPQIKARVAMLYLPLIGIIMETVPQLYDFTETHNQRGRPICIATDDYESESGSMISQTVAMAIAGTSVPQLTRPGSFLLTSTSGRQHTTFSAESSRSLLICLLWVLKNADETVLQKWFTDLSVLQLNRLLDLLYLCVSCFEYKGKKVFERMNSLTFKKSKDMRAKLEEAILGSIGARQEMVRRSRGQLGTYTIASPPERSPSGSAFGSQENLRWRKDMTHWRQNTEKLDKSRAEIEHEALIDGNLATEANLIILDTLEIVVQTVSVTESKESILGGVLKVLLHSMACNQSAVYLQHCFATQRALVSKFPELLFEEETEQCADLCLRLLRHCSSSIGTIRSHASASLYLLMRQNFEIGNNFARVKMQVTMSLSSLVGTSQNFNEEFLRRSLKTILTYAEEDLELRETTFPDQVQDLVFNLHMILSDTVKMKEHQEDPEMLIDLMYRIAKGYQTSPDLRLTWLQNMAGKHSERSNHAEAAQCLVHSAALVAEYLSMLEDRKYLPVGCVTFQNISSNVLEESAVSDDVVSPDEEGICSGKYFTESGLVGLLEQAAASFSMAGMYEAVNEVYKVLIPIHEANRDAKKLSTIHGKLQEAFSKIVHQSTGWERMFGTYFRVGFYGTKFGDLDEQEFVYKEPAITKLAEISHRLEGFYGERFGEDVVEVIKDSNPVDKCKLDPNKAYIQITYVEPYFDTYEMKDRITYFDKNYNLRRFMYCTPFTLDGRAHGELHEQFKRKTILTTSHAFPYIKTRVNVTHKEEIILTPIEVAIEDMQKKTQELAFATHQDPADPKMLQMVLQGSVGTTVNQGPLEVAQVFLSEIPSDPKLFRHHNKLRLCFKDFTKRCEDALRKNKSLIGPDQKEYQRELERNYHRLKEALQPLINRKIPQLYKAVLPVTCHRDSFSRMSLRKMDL

Chain of UniProt Q08AM6 (Q08AM6 whole entry): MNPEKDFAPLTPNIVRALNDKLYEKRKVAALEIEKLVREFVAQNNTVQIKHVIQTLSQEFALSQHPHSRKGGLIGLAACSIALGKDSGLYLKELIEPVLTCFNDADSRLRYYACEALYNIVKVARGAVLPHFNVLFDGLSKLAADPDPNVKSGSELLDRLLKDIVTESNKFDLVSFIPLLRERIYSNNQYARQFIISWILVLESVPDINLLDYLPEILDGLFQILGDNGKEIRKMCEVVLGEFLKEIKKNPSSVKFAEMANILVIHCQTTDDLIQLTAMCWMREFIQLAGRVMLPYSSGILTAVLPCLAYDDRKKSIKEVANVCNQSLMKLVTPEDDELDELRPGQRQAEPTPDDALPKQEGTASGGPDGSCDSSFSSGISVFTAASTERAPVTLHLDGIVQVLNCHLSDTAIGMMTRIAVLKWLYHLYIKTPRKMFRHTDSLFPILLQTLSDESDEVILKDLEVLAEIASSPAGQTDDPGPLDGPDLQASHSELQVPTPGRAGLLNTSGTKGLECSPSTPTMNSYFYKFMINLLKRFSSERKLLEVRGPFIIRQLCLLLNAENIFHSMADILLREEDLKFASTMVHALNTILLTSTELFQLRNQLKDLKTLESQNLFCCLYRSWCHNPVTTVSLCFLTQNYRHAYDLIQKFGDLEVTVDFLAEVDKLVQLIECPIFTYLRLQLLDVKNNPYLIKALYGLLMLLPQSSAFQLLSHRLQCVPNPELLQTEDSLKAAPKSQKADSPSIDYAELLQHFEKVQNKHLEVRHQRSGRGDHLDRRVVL

In the case of “Neurobeachin-like protein 2 (Homo sapiens), Q6ZNJ1 G2290W;E2294G”, the “effect of a mutation on the interaction” value in the assay with vac14_human VAC14 and with dock7_human DOCK7 was “decreasing interaction strength” each time.
For “Neurobeachin-like protein 2 (Homo sapiens), Q6ZNJ1 M2080K”, the “effect of a mutation on the interaction” value in the assay with vac14_human VAC14 is on record as “decreasing interaction strength”; with dock7_human DOCK7 it was “with no effect”.
With “Neurobeachin-like protein 2 (Homo sapiens), Q6ZNJ1 P2100L”, the results for the “effect of a mutation on the interaction” value with vac14_human VAC14 and with dock7_human DOCK7 were “decreasing interaction strength” and “disrupting interaction strength”, respectively.
For “Neurobeachin-like protein 2 (Homo sapiens), Q6ZNJ1 R2172H”, in that order: “with no effect” and “disrupting interaction strength”.
The like results for “Neurobeachin-like protein 2 (Homo sapiens), Q6ZNJ1 S2269L” were, in that order, “increasing interaction strength” and “with no effect”.
